Laboratory results published in the supplement of paper PMC10065799, “High-throughput profiling of sequence recognition by tyrosine kinases and SH2 domains using bacterial peptide display” (eLife, 2023).

Legend:
[1] = target: c-Src SH2; assay: SH2 binding enrichment of the phosphorylated peptide, bacterial display (enrichment ratio); higher = better substrate or ligand; peptides without Tyr show the background
[2] = target: SHP2-C SH2; assay: as above
[3] = target: Grb2 SH2 (UniProt P62993); assay: as above
Sequence of Grb2 SH2 (P62993 whole entry, looked up): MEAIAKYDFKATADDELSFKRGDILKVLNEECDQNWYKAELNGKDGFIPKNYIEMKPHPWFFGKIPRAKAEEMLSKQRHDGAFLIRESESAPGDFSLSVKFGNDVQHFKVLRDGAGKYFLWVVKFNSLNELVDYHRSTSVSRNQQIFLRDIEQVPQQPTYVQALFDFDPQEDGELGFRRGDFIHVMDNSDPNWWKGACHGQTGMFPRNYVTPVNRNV

[4] = target: Jak2 (UniProt O60674); assay: phosphorylation enrichment, bacterial display (enrichment ratio); higher = better substrate or ligand; peptides without Tyr show the background
Sequence of Jak2 (O60674 whole entry, looked up): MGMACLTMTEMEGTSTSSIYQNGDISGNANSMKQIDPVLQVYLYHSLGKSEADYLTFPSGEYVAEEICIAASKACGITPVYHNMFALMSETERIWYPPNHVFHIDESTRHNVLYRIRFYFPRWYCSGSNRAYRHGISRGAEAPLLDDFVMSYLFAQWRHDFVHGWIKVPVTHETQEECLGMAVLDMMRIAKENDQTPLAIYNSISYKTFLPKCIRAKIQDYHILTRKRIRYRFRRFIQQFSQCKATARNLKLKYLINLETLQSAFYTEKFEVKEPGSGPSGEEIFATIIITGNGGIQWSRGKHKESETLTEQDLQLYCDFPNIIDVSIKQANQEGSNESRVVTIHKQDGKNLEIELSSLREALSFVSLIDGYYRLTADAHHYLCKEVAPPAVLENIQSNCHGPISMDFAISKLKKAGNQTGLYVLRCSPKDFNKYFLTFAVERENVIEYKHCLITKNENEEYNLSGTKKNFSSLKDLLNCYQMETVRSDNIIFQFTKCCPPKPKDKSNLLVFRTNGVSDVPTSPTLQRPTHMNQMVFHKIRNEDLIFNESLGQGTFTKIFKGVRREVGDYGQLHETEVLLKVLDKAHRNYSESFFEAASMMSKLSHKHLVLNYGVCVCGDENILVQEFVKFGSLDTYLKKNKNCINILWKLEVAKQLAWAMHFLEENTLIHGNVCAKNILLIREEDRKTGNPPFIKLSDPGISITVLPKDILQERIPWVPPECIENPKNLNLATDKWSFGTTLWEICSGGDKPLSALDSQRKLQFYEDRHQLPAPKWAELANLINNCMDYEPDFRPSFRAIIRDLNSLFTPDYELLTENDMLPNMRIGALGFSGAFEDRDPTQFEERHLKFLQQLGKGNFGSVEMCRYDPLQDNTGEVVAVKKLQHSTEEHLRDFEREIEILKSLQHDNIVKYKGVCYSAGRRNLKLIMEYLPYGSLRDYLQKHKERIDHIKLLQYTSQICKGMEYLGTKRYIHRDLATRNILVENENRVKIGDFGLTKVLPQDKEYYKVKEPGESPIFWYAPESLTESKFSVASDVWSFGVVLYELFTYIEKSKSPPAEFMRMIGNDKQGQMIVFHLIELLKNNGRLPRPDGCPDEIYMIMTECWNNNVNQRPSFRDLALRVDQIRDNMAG

[5] = target: Fes (UniProt P07332); assay: as above
Sequence of Fes (P07332 whole entry, looked up): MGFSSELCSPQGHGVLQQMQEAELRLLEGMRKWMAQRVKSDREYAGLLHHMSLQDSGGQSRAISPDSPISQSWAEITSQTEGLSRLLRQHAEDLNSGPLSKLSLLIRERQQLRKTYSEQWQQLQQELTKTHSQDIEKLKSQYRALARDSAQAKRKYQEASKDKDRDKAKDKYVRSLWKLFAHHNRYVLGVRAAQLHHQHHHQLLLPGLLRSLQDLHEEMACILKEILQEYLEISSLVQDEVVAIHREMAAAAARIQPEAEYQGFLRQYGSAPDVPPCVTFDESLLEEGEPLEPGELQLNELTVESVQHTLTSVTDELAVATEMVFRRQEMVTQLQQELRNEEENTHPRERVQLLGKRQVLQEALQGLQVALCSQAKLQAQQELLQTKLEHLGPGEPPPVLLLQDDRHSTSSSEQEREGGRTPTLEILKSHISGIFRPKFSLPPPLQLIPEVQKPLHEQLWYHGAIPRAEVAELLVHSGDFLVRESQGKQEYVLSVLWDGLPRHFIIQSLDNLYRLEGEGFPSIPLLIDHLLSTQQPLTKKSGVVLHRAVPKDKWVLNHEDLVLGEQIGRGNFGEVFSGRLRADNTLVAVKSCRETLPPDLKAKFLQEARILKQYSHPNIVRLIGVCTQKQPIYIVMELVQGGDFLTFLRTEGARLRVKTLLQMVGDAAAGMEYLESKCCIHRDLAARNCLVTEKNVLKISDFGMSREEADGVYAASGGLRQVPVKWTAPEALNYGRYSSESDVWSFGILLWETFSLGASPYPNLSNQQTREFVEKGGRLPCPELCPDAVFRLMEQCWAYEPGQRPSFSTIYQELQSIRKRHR

[6] = target: EPHB2 (UniProt P29323); assay: as above
Sequence of EPHB2 (P29323 whole entry, looked up): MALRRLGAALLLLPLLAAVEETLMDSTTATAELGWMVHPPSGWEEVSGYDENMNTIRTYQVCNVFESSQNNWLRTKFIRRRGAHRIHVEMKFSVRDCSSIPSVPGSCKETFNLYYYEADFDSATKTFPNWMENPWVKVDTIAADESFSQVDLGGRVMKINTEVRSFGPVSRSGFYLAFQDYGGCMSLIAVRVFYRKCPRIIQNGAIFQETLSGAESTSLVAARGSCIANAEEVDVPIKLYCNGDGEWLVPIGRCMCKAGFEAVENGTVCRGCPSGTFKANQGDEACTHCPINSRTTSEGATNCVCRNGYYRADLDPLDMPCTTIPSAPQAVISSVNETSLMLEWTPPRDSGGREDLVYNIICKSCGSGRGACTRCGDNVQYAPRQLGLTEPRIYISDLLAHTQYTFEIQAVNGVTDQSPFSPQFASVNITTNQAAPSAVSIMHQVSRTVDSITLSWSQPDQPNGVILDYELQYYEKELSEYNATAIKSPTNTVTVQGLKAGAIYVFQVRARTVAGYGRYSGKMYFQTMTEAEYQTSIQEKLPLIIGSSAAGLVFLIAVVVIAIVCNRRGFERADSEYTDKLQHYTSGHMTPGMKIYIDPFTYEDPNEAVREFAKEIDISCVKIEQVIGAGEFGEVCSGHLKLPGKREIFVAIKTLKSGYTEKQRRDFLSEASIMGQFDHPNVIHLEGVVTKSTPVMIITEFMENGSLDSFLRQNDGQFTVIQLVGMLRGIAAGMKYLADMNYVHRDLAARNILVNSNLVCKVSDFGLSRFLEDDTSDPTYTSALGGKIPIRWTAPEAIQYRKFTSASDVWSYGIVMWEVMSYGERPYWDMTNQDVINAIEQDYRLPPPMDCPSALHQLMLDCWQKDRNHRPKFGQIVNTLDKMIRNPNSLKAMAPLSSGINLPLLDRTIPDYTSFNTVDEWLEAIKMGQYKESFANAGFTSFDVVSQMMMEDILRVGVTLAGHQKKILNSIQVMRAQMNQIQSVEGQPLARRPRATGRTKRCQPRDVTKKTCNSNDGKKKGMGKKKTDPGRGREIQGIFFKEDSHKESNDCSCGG

[7] = target: FGFR1 (UniProt P11362); assay: as above
Sequence of FGFR1 (P11362 whole entry, looked up): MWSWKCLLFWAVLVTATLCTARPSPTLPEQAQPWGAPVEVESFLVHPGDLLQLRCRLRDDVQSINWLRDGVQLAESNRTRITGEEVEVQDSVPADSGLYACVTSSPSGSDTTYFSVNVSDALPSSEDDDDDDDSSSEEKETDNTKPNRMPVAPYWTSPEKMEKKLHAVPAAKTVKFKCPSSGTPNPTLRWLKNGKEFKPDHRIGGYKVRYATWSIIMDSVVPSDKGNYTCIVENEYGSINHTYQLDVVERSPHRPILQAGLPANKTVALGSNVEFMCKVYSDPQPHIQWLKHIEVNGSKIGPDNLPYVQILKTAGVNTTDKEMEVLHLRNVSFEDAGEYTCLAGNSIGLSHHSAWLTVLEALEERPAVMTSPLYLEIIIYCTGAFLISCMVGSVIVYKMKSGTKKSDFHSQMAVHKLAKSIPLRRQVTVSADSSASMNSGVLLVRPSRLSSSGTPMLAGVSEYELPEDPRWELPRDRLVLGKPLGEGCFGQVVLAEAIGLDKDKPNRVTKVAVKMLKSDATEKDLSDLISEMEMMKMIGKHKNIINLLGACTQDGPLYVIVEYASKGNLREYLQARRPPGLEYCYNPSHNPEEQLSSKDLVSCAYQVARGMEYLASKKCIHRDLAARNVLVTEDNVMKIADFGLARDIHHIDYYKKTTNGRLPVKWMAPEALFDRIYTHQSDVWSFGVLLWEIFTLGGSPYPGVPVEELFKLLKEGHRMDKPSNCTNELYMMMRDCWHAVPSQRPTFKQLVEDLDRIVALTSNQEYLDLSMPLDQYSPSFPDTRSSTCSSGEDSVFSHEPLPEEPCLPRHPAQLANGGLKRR

[8] = test system: AncSZ; assay: as above
[9] = target: MERTK (UniProt Q12866); assay: as above
[10] = target: Hck (UniProt P08631); assay: as above
[11] = target: EPHB1 (UniProt P54762); assay: as above
Sequence of EPHB1 (P54762 whole entry, looked up): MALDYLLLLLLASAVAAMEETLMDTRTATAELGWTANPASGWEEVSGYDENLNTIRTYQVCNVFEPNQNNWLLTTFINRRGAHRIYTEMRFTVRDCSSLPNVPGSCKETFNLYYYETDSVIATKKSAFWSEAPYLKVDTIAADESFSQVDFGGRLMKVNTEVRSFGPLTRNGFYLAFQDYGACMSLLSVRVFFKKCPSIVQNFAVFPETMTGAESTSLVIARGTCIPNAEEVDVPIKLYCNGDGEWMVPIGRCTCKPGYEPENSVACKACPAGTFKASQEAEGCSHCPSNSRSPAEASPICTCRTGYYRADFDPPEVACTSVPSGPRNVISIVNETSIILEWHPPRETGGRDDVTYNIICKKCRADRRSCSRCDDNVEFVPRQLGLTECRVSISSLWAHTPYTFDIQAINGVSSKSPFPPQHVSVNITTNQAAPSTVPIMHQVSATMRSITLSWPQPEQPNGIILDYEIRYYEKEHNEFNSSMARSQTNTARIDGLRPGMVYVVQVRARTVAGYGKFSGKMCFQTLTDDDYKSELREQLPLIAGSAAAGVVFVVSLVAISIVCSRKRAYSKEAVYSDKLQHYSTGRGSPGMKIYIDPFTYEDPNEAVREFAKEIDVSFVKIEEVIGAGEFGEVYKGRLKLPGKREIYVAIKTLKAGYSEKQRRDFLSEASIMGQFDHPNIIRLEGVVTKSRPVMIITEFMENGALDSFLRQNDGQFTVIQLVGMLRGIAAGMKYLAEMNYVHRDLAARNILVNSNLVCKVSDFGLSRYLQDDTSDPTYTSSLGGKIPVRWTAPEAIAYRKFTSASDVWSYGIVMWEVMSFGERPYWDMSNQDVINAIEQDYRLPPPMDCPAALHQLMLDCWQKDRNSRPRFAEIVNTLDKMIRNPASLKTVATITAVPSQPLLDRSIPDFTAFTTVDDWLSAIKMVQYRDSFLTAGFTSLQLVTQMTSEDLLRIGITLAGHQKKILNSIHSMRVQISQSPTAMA

[12] = target: FGFR3 (UniProt P22607); assay: as above
[13] = test system: c-Abl (mouse); assay: as above
[14] = target: Fyn (UniProt P06241); assay: as above
[15] = test system: c-Src; assay: as above
[16] = test system: Fer (mouse); assay: as above
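For SH2 binding enrichment of the phosphorylated peptide, bacterial display in this document: peptide library displayed on the E. coli surface as eCPX fusions, selected cells deep-sequenced, score is each peptide's frequency after selection divided by its frequency in the input.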
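For phosphorylation enrichment, bacterial display in this document: 11-residue human phosphosite peptides and single-mutation variants displayed on the E. coli surface, counted by deep sequencing, each peptide's frequency after selection divided by its frequency in the unselected input library; frequency after pTyr selection over input frequency; kinase dosed for 20-30% of maximal phosphorylation in three min.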

Sequence | SH2 binding enrichment [1] | SH2 binding enrichment [2] | SH2 binding enrichment [3] | phosphorylation enrichment [4] | phosphorylation enrichment [5] | phosphorylation enrichment [6] | phosphorylation enrichment [7] | phosphorylation enrichment [8] | phosphorylation enrichment [9] | phosphorylation enrichment [10] | phosphorylation enrichment [11] | phosphorylation enrichment [12] | phosphorylation enrichment [13] | phosphorylation enrichment [14] | phosphorylation enrichment [15] | phosphorylation enrichment [16]
GREAEYSDKHG [EPHB4_Y574] | 0.402 | 0.618 | 0.809 | 0.582 | 0.821 | 0.44 | 0.388 | 0.64 | 0.39 | 0.354 | 0.392 | 0.547 | 0.571 | 0.773 | 0.405 | 0.472
SVTCTYSPALY [TP53_Y126_N131Y] | 0.397 | 0.638 | 0.569 | 1.33 | 1.71 | 0.786 | 0.523 | 1.76 | 0.495 | 0.932 | 0.808 | 0.929 | 0.91 | 1.27 | 1.21 | 0.695
GKTQQYDCKWF [BCR_Y751_YF] | 0.466 | 0.624 | 0.826 | 0.927 | 1.07 | 0.563 | 0.472 | 0.848 | 0.451 | 0.425 | 0.596 | 0.63 | 0.748 | 0.432 | 0.43 | 0.463
EQKRFYNAMKK [SCN5A_Y1495_K1493R_YF] | 0.86 | 0.758 | 0.772 | 0.562 | 0.711 | 0.309 | 0.369 | 0.69 | 0.387 | 0.342 | 0.562 | 0.415 | 0.698 | 0.363 | 0.441 | 0.35
GNLLIYTELGK [HGD_Y166_F169L] | 0.381 | 0.478 | 0.756 | 1.21 | 1.43 | 2.57 | 1.29 | 1.46 | 4.86 | 5.3 | 3.98 | 1.19 | 2.29 | 5.68 | 4.74 | 0.986
FFIMMYTGSSV [DNAJC13_Y1131_N1135S] | 0.455 | 0.851 | 0.703 | 0.824 | 1.07 | 0.468 | 0.366 | 0.97 | 0.325 | 0.438 | 0.62 | 0.533 | 0.743 | 0.316 | 0.342 | 0.456
MEIHAYRKLSE [LMNA_Y376_L380S] | 0.432 | 0.641 | 0.718 | 0.678 | 0.788 | 0.459 | 0.371 | 0.729 | 0.342 | 0.466 | 0.379 | 0.495 | 0.641 | 0.356 | 0.384 | 0.39
GKFFQYDTWKQ [IGF2_Y116] | 0.742 | 0.755 | 0.906 | 0.601 | 0.852 | 0.564 | 0.407 | 0.766 | 0.485 | 0.826 | 0.498 | 0.514 | 0.582 | 0.43 | 0.567 | 0.468
LWQSIYNLDAE [TNNT2_Y251_E254D] | 0.456 | 0.639 | 0.771 | 0.981 | 1.2 | 1.18 | 0.658 | 1.38 | 0.497 | 6.38 | 0.883 | 0.784 | 0.706 | 9.69 | 6.55 | 0.513
KELAPYDENCF [RPS19_Y48_W52C] | 1.32 | 0.803 | 1.24 | 1.31 | 1.48 | 0.696 | 0.573 | 1.32 | 0.487 | 0.57 | 0.628 | 0.902 | 0.997 | 0.583 | 0.612 | 0.632
IIRYNYLLDVL [FGFR4_Y237_S232I] | 2.69 | 1.66 | 1.34 | 1.03 | 2.41 | 0.651 | 0.599 | 0.943 | 0.52 | 0.557 | 0.522 | 0.723 | 0.976 | 0.476 | 0.49 | 0.507
KSRQIYDAFIM [GRK3_Y109_R104K_YF] | 0.477 | 0.947 | 0.703 | 0.799 | 0.941 | 6.65 | 0.576 | 0.764 | 11.7 | 10.4 | 4.7 | 0.6 | 16.5 | 13 | 9.72 | 14.4
ARMTNYGLPRY [TSPAN12_Y138] | 0.5 | 0.761 | 1 | 0.606 | 0.739 | 0.588 | 0.495 | 0.576 | 0.497 | 0.554 | 0.463 | 0.441 | 0.66 | 0.619 | 0.534 | 0.576
RDIHDYIKHLG [UNC13C_Y308] | 0.507 | 0.97 | 0.92 | 0.614 | 0.696 | 0.985 | 0.449 | 0.9 | 0.46 | 0.519 | 0.597 | 0.474 | 0.373 | 0.576 | 0.487 | 0.582
ATVRPYRPYII [LRP5_Y1528_A1525V] | 0.482 | 0.657 | 0.765 | 0.564 | 0.715 | 0.552 | 0.53 | 0.777 | 0.484 | 0.43 | 0.499 | 0.591 | 0.677 | 0.518 | 0.586 | 0.462
IATAIYSGDKI [UGGT2_Y823] | 0.393 | 0.674 | 0.796 | 0.6 | 0.671 | 0.432 | 0.421 | 0.543 | 0.455 | 2.38 | 0.434 | 0.482 | 0.422 | 2.11 | 2.69 | 0.396
KFMVGYEMLAQ [GALT_Y339] | 3.23 | 0.892 | 1.33 | 0.833 | 0.897 | 0.504 | 0.553 | 0.88 | 0.343 | 0.526 | 0.519 | 0.697 | 0.622 | 0.417 | 0.382 | 0.511
